# Source: the DeepSol protein solubility set
# Experiment: soluble on expression in E. coli; label from the status in PepcDB or PDB records
row,Sequence,soluble on expression in E. coli
1,MGSDKIHHHHHHMNQVTTYLWETHLPGGSHWSGVVRRGTTLRLTDVSGGANAAVLFYNLEEKLERYNMADTLKTQHTFCLTKGHACHSDMGRIFCCITEDTAGWHDTVCGLSDAELIQQKYGTGRYQELRNDMYRNGLDGMLVELGKWGLGRRDVVSNINFFSKVTANSVGELQFHVSHSKAGDHVDLAFAMDTLVVLSAAPHPLDPAATYRPGAVNLAVFPSTPAVTGACAHIAENARGLENTRRLYAYGGVK,not soluble
2,MEEVYASELRGREPETVDTLFLDNTQGGVIGGINEKLTKLELLSMVKCGLTTLKGMPVLPALNYLDLSDNELGDDASFDVLIKCAPEIKKITLSGNRLTLDNVRTLKMLPNLMELDLSNNSSLGLLDDYRVKMFEMIPSLKILDGCDVDGEEVEEEFAAGEGAEDSDEGDSDEDGPGLSYLNKSQFSDDETDDYVVPEAGDAETRGAKRAASADCDEPEAKKSAE,soluble
3,MANGTVLHFRFNVKQIRAKIVRKSYRFFPNDTAGHIRNMHDTMNKIFENSPPAFSYKPIETLNKCIAKVKSDVCHSTGGICKAAMDNVTNWVYNTTEGLFTTGTRLIV,not soluble
4,MIIYRDLISHDVMFSDIYKIREIADGLCLEVEGKMVSRTEGNIDDSLIGGNASAEGPEGEGTESTVITGVDIVMNHHLQETSFTKEAYKKYIKDYMKSIKGKLEEQRPERVKPFMTGAAEQIKHILANFKNYQFFIGENMNPDGMVALLDYREDGVTPYMIFFKDGLEMEKCLEHHHHHH,soluble
5,MSLKTLIKNVHILTMDEQFSEIKAGYLVIEEDTIVELAPMTTLDEKRMAANQVIDGQNGILMPGMINTHTHVGMIPFRSLGDDVPDRLRRFLFPLEQFMTKELVGCSSDYAIAEMLLSGITSFCDMYYFEDEIAKSCEKMSVRALLGETIIDMPTCDSPEPSGGLFYAETFIRKWQGHPLITPMLAPHAPNTNSPEVLAKIIELSRQYQVPVTMHVAEMTYEMAEFEKAYQKTPIAFLEELGYLSEPFILAHCILATDEDLASLAATNGKARVAHCIGANTKSAKGVAPIKQMLDQGIIVGLGTDGPSSGNTLDLFTQMRMVANFHKTAHQDRSLFPAKEIVYLATMGGAKTLGLAEQVGSLEVDKKADITLIETQSVNMFPIFDAYSALVYSANASNVEAVWVNGQQLVANKELQQANLKEIKEKLYQAMNTFVKEAKKRAALEGHHHHHH,soluble
6,MSPFMEKTLLLLGVLCCIQVTTALMCYDCNSEFDPRCGDPFEPYSIGEVNCSKQEPLEHLKDKYKPTLCRKTVQKIYGKTRIVRGCGYIPDENTDNKCVRRSGTHDVAAIYCSCTKDLCNGANSPAGQWMMLPLIVAAGLALLLNSRHTIRFQSS,not soluble
7,MLSCRDLVIRQGGKVLWQNLTFTISAGERVGIHAPSGTGKTTLGRVLAGWQKPTAGDVLLDGSPLPLHQYCPVQLVPQHPELTFNPWRSAGDAVRDAWQPDPETMRRLHVQPEWLTRRPMQLSGGELARIAILRALDPRTRFLIADEMTAQLDPSIQKAIWVYVLEVCRSRSLGMLVISHQSALLDQVCTRHLQVE,not soluble
8,METPYHQRWLAFPDAVSSYRPLESRLAGTSRATADNRTPCTGRLGTPRVFLMATDDVSKAYSSPTFDAEALLGTVISAEDPDRVLIEPWATGVDGVILDVGSGTGRWTGHLASLGHQIEGLEPATRLVELARQTHPSVTFHHGTITDLSDSPKRWAGLLAWYSLIHMGPGELPDALVALRMAVEDGGGLLMSFFSGPSLEPMYHPVATAYRWPLPELAQALETAGFQVTSSHWDPRFPHAYLTAEASLEHHHHHH,soluble
9,MGSDKIHHHHHHMKQSEQEEPLTGGNVSDVSRIGETVRREQKPESLRVHRVLQHLEQKGFEGSPRYLGIDPQGREILSFIEGEAGNYPLQPYMQSDRVLEETARLLRSYHEAVADFPIPTDWQPLDGTPEPLELICHNDFAVYNVIFQNERPVGIIDFEVAAPGPRIWDIAYTMYTFVPLSRHQMTEDGEPAHYNPVNDQERIRRRVLLFLSAYGKAELKDEMYETVLLRVEALIKTIHRRAAEGDDAFQRMIDDGHVTHYEQEIDFLKREGADWFR,not soluble
10,MGSDKIHHHHHHAQETLRENNGEPTLVERLSNGEIKINSAEMNFQLFTSANAEFVGNELDGMNFKLNRVRLEIKGDVGKWLGYHYRQSFNKYSDPYSLDNLSSSLELAYVNLKARPNLNFTIGKQFVNFGGYEYYVNSIRVREFSEFNNLLTAYQAGISGNWQVSPDHELCFQIVNNRNGNDEDIYPTGLPEGTAKAKIPFMYTVNWNSYYLDKSLQLRYATAVGQQTRKRYSYYFTCGNTYEKGPLLTYLDVMYTRQGIDQHGVVSRLPGTPHTAMNTEYLSIIGDVDYRVHPQWNVYVKGAYETARVYKGNGDFRKGMYRRSWNAQSSVEFFPFKQLDLFVFVLYTYRGVILEKAATRMGAIEPDTHRISLGLVYSIPVF,not soluble
11,MRMKALLIDYGSGNLRSAAKALEAAGFSVAVAQDPKAHEEADLLVLPGQGHFGQVMRAFQESGFVERVRRHLERGLPFLGICVGMQVLYEGSEEAPGVRGLGLVPGEVRRFRAGRVPQMGWNALEFGGAFAPLTGRHFYFANSYYGPLTPYSLGKGEYEGTPFTALLAKENLLAPQFHPEKSGKAGLAFLALARRYFEVL,soluble
12,MAYTLATHTAGVIPAGKLERVDPTTVRQEGPWADPAQAVVQTGPNQYTVYVLAFAFGYQPNPIEVPQGAEIVFKITSPDVIHGFHVEGTNINVEVLPGEVSTVRYTFKRPGEYRIICNQYCGLGHQNMFGTIVVKE,soluble
13,MGPGTTVRWRRRVSGWRRAGCAALIAGAVALPLSGAARPEIPAPPPAALAAPTAATLDKAYAANRANAAEASRMAADHGDRHRAAADRAMADRSRRLLAFDGRGTGLATEVFGDLARADRVAVLVPGSDTGLDTYGRFRATALALHRQLVAEAPAGTRTAVVAWLGYETPGTVSTTVATTDRADRAAPELRALVGDLRRITGPGTRLALLCHSYGSVVCARAADGLEVADIALVGSPGTGADTAAGLHSEARVWAGRGAEDWVEHVPHVSADLFGTTVGFGTDPVSPAFGARVFDAGDGGHSDYFDPGSRSLTNLARIALGETTEVTHALEHHHHHH,not soluble
14,MIETTLTGKTPDIGEENIKKLMTMFPEVVTEGKVDFEKLKQLLGEYVDDSNERYNFTWNGKGRALRLSQTPSLGTLRPCKEESKNWDTTQNLYIEGDNLEVLKLLQKSYYGKIKMIYIDPPYNTGKDFVYRDDFHDSLENYKRITGQVDGNGKAISTNTETSGRYHTDWLNMMYPRLRLARNLLSDDGVIFISIDDNEVDNLKKICNEIFGEDNFIANCVRKRRDSQANLSQNISPIHEYVLIYAKRFGNILNKVTPSLDMGSYKNPDNDPRGPYTTMPCTNVGGAVYSIVTPTGKTITDEWRFKKETFEKLLLDNRIVFPRNGEGKPRYKIFLSEKMAEGVLANTWLDKIASNQEGTREIKELFGGLLFNNPKPTGLLKFLLELGSSKDSIILDFFSGSATTAHAVMQLNAEDGGNRRFIMVQLPEPTDENSEAYKAGYMNISEIGKERIRRAGEKIKEEYKDKGNIENLDIGFKVFKLDTSNIRKWQPDYDNLEQSLMDYVDNFVEGRTELDVVYEIMLKYGLDLTYPVDEFTIAGKKVYSIGYGMLMICLDNEITTEVAKGILTKIKELSPESSRVVFKDNGFKTDSNKTNIKEILKSGGIEEFITI,not soluble
15,GPGSMAVPDDNAEEVELLLSISPEVVCRDPTHSSTLVFLLPFRFVLHVTLPPRGYPDVSRPSLFVAAGPNAHLVNQFSSQLNKALREEVPLGGPMLLHIFTLAQDIATELQRTREAEAQEAKARREAMESEAQLALAEREASSVEVWASDAITDRKSKFVAHMARVDSEAAVREVVMHLRSQKHIAEAAHPTIYAYRFTDSSGVVHHDSDDDGETGAASRIMFLLEQMKVDGYVVVVTRWFGGVLLGPDRFKHIMEVARSILLTIPQREKERGVRDWQDRQ,soluble
16,GAMDAAVAPEERHLSKMQQNGYENPTYKFFEQMQN,soluble
17,MGSDKIHHHHHHMNPNTVPPAARDVAWIKHALQTAIELEYSTLPLYLSAMFSLEVQNYTAYNAIRSIAMEEMVHMAIAANLLAALGGSPQFKPIQIAYPTTGLPGGAEPDLHVGLARYSKPQLKNFLRIETPGFLLRQLGRDEGYPTIAAFYESIRSAIARNANAVRAAVQAGGPANQVGDDIGFTTVTYKPGVDPVESFDAGIGEILQQGEGSGRGDVFAGNPFEDEESHYARFAELYYGARYQAPSPPVDFNPKNEPLFFGGPAIAAPVVVNTLAVPRDGYARILALDPERDTVESDLNAFDSGFSKILSTLDAVWNGPSSTSWKTLGAAVHGMVDLRVLSCFNIMRHAVPAAAVSQLAELYPDEIGFLRTYTDLSKPVFYGPRFVNVNGKQAS,not soluble
18,MSTLKVVSSKLAAEIDKELMGPQIGFTLQQLMELAGFSVAQAVCRQFPLRGKTETEKGKHVFVIAGPGNNGGDGLVCARHLKLFGYNPVVFYPKRSERTEFYKQLVHQLNFFKVPVLSQDEGNWLEYLKPEKTLCIVDAIFGFSFKPPMREPFKGIVEELCKVQNIIPIVSVDVPTGWDVDKGPISQPSINPAVLVSLTVPKPCSSHIRENQTTHYVGGRFIPRDFANKFGFEPFGYESTDQILKL,soluble
19,MLNEKQAKHIATAIENGNYRSKRQAIVDTTNFWSVSVPIFYQFDTKLSATNIANVRKAIQFWNDNSCLSFKEDNNAKNRLFLSSAGGCWSYVGKQVDMPYQMVSVGPNCDTFGTATHELMHAIGFWHQQSRADRDNYVYVDFSNIIPSQAYNFQKMAVDQAQLLNLPYDYGSVMQYYPYAFAVDSSKYTILAKENGFQNSMGQREAPAFSDIIGVNKLYNCTSQCKIQMKCSNCGITDSRNCNQCKCPRYFTGASCDSLPSGTAPNCNGAVLQATSSWETFDAKAGDPSSFSSSTDNSTNCYWHIKAPEGQQIEFKMTKTPLAAICMQECPWQSIEVNLGKFDLFGMITCCDTILNQVFTSELNMIALRGIIRYNQLTFSIQYRAVPSSKPASTNACLNQ,not soluble
20,MGSDKIHHHHHHVAKSIAGGVRPGIIIDIEHRLLKQIIVGKQKAAASMFDDLDRELENDANKLAIERDAVFERLSKQIQARQVYEAVSKQLITTVNSTLDNQLASPELLIQHSGINASQMLMLELLQQKNLDLSRLRLLIADLPWLARDLTNMVNSPSFRHKRQQRSDVKVTEIKLVLNFIGVENLRLLIPYYCLRNWLPTGHANLLWTTRKLWRYAMVTGIAAKALAQLNEQDMATAYTSSLLYQLGVSVVLKNGAKVYESIWGNWLREASASRDKELHDAVLATEFPAEDIYQQVLQHAHTLNWRLPELLDFSASGLTQTQRELDTCLSYSELSTEAALVARASCYAKVLMLDEMRLISPKEKQMMFDYYQLSEQEQIRLKGQNYRKLDLY,not soluble
21,MITDCCPGFGSVAKYIAVSMLEASFDVASMAKTSTKVFILEVMGRHAGWIAAAGGLASNEDHEVPIIILFPEVTFDQEKFLAKTDHYVKEYGYCTVVVSEGVKGTDGKFLSDQGLRDAFGHAQLGGVAPVIANIVKNGLGLEHHHHHH,soluble
22,MPLTLNQLAELSGRASEHVLAEEVEETGTPAEEILARLRERLAVMRDSVRRGLASDAPSVAGLVGKNAKTLWEAPDPLQDPLLKRVQAYAMAVNEENARMGRIVAAPTAGSAGTLPGALLGVADHLGIPDEELLMPLVLAGGVAKMIGRVIHIAGASGGCQAEIGSSAAMAAAAVTELLGGTPEACAHAAALALQNTLGLVCDPVGGFVEVPCVMRNGFYAVHAVSAASMALAGIRSVIPPDEVVLAMAGIGRLLPLELKETGLGGLADTPTGRRLAEEALKKT,soluble
23,MAMAALKDLVEFQLKNAQELVTVLEAEKVAITSRISVDIESIAKQKLTLVNQLQQTDQRIAKHPHVASLTEDTYLNELVSQIRSIIMDCQQANLINGDALARAQLSFNKLNNLMQQSHGKIGMTYSATGKTHTISTLGTNIKA,not soluble
